What was measured:
peptide of Example 2(36) = target: T1, peptide of Example 2(36)
T1 chain: PNSEXX

[1] = target: T2, Nα-Me-GlySerGlyAla(2-Naph)AlaAla-DCHA.TFMSA
T2 chain: GSGXAX

peptide of Example 2(23) = target: T3, peptide of Example 2(23)
T3 chain: PQQQXX

peptide of Example 2(54) = target: T4, peptide of Example 2(54)
T4 chain: KLSEXX

peptide of Example 2(57) = target: T5, peptide of Example 2(57)
T5 chain: TLSEXX

peptide of Example 2(53) = target: T6, peptide of Example 2(53)
T6 chain: QLSEXX

peptide of Example 2(83) = target: T7, peptide of Example 2(83)
T7 chain: GLSEXAX

peptide of Example 2(61) = target: T8, peptide of Example 2(61)
T8 chain: KNLSEXX

[2] = target: T9, Nα-Me-GlyLeuSerGluAla(2-Naph)Ala-pNA.TFMSA
T9 chain: GLSEXX

peptide of Example 2(18) = target: T10, peptide of Example 2(18)
T10 chain: APQQAXX

peptide of Example 2(34) = target: T11, peptide of Example 2(34)
T11 chain: PQDEXX

peptide of Example 2(78) = target: T12, peptide of Example 2(78)
T12 chain: LSEXAX

peptide of Example 2(7) = target: T13, peptide of Example 2(7)
T13 chain: PQQAXX

[3] = target: T14, ProLeuSerGluAla(2-Naph)Ala-pNA
T14 chain: PLSEXX

peptide of Example 2(16) = target: T15, peptide of Example 2(16)
T15 chain: NPQQAXX

peptide of Example 2(69) = target: T16, peptide of Example 2(69)
T16 chain: XLSEXX

peptide of Example 2(3) = target: T17, peptide of Example 2(3)
T17 chain: PQQAXX

peptide of Example 2(51) = target: T18, peptide of Example 2(51)
T18 chain: GLSEXX

peptide of Example 2(63) = target: T19, peptide of Example 2(63)
T19 chain: PNNLSEXX

peptide of Example 2(11) = target: T20, peptide of Example 2(11)
T20 chain: PQQAXX

peptide of Example 2(22) = target: T21, peptide of Example 2(22) (not fully specified)
T21 chain: PQQNXX

peptide of Example 2(24) = target: T22, peptide of Example 2(24)
T22 chain: PQQGXX

peptide of Example 2(33) = target: T23, peptide of Example 2(33)
T23 chain: PQEEXX

peptide of Example 2(39) = target: T24, peptide of Example 2(39)
T24 chain: PMSEXX

peptide of Example 2(25) = target: T25, peptide of Example 2(25)
T25 chain: PQQMXX

peptide of Example 2(80) = target: T26, peptide of Example 2(80)
T26 chain: LSEXAX

peptide of Example 2(56) = target: T27, peptide of Example 2(56)
T27 chain: SLSEXX

peptide of Example 2(45) = target: T28, peptide of Example 2(45)
T28 chain: PTSEXX

peptide of Example 2(14) = target: T29, peptide of Example 2(14)
T29 chain: KPQQAXX

B1: human pepsin I (protein)
chain: VDEQPLENYLDMEYFGTIGIGTPAQDFTVVFDTGSSNLWVPSVYCSSLACTNHNRFNPEDSSTYQSTSETVSITYGTGSMTGILGYDTVQVGGISDTNQIFGLSETEPGSFLYYAPFDGILGLAYPSISSSGATPVFDNIWNQGLVSQDLFSVYLSADDQSGSVVIFGGIDSSYYTGSLNWVPVTVEGYWQITVDSITMNGEAIACAEGCQAIVDTGTSLLTGPTSPIANIQSDIGASENSDGDMVVSCSAISSLPDIVFTINGVQYPVPPSAYILQSEGSCISGFQGMNLPTESGELWILGDVFIRQYFTVFDRANNQVGLAPVA
Protein B1 has a pepsin I digesting rate (µM/min · 1 µg Enz) (peptide of Example 2(36)) of 0.11, a pepsin I digesting rate (µM/min · 1 µg Enz) [1] of 0.277 and a pepsin I digesting rate (µM/min · 1 µg Enz) (peptide of Example 2(23)) of 0.0191. For the same protein, the pepsin I digesting rate (µM/min · 1 µg Enz) (peptide of Example 2(54)) was 0.274, the pepsin I digesting rate (µM/min · 1 µg Enz) (peptide of Example 2(57)) was 0.0284 and the pepsin I digesting rate (µM/min · 1 µg Enz) (peptide of Example 2(53)) was 0.0998. For the same protein, the pepsin I digesting rate (µM/min · 1 µg Enz) (peptide of Example 2(83)) was 2.37, the pepsin I digesting rate (µM/min · 1 µg Enz) (peptide of Example 2(61)) was 0.168 and the pepsin I digesting rate (µM/min · 1 µg Enz) [2] was 0.313. It also gave a pepsin I digesting rate (µM/min · 1 µg Enz) (peptide of Example 2(18)) of 0.0122, a pepsin I digesting rate (µM/min · 1 µg Enz) (peptide of Example 2(34)) of 0.0216 and a pepsin I digesting rate (µM/min · 1 µg Enz) (peptide of Example 2(78)) of 2.62. It also gave a pepsin I digesting rate (µM/min · 1 µg Enz) (peptide of Example 2(7)) of 0.0335, a pepsin I digesting rate (µM/min · 1 µg Enz) [3] of 0.28 and a pepsin I digesting rate (µM/min · 1 µg Enz) (peptide of Example 2(16)) of 0.0082. For the same protein, the pepsin I digesting rate (µM/min · 1 µg Enz) (peptide of Example 2(69)) was 0.985, the pepsin I digesting rate (µM/min · 1 µg Enz) (peptide of Example 2(3)) was 0.002 and the pepsin I digesting rate (µM/min · 1 µg Enz) (peptide of Example 2(51)) was 0.163. The pepsin I digesting rate (µM/min · 1 µg Enz) (peptide of Example 2(63)) was 0.176, the pepsin I digesting rate (µM/min · 1 µg Enz) (peptide of Example 2(11)) was 0.0235 and the pepsin I digesting rate (µM/min · 1 µg Enz) (peptide of Example 2(22)) was 0.0578. It also gave a pepsin I digesting rate (µM/min · 1 µg Enz) (peptide of Example 2(24)) of 0.0058, a pepsin I digesting rate (µM/min · 1 µg Enz) (peptide of Example 2(33)) of 0.0632 and a pepsin I digesting rate (µM/min · 1 µg Enz) (peptide of Example 2(39)) of 0.228. The pepsin I digesting rate (µM/min · 1 µg Enz) (peptide of Example 2(25)) was 0.0063, the pepsin I digesting rate (µM/min · 1 µg Enz) (peptide of Example 2(80)) was 0.15 and the pepsin I digesting rate (µM/min · 1 µg Enz) (peptide of Example 2(56)) was 0.0194. It also gave a pepsin I digesting rate (µM/min · 1 µg Enz) (peptide of Example 2(45)) of 0.251 and a pepsin I digesting rate (µM/min · 1 µg Enz) (peptide of Example 2(14)) of 0.0094.

B2: human pepsin II (protein)
chain: SVTYEPMAYMDAAYFGEISIGTPPQNFLVLFDTGSSNLWVPSVYCQSQACTSHSRFNPSESSTYSTNGQTFSLQYGSGSLTGFFGYDTLTVQSIQVPNQEFGLSENEPGTNFVYAQFDGIMGLAYPALSVDEATTAMQGMVQEGALTSPVFSVYLSNQQGSSGGAVVFGGVDSSLYTGQIYWAPVTQELYWQIGIEEFLIGGQASGWCSEGCQAIVDTGTSLLTVPQQYMSALLQATGAQEDEYGQFLVNCNSIQNLPSLTFIINGVEFPLPPSSYILSNNGYCTVGVEPTYLSSQNGQPLWILGDVFLRSYYSVYDLGNNRVGFATAA
B2 showed a pepsin II digesting rate (µM/min · 1 µg Enz) (peptide of Example 2(36)) of 21.2, a ration of digesting rate (pepsin II/ pepsin I) (peptide of Example 2(36)) of 194 and a pepsin II digesting rate (µM/min · 1 µg Enz) [1] of 33.1. The ration of digesting rate (pepsin II/ pepsin I) [1] was 120, the pepsin II digesting rate (µM/min · 1 µg Enz) (peptide of Example 2(23)) was 5.9 and the ration of digesting rate (pepsin II/ pepsin I) (peptide of Example 2(23)) was 309. The pepsin II digesting rate (µM/min · 1 µg Enz) (peptide of Example 2(54)) was 48.4, the ration of digesting rate (pepsin II/ pepsin I) (peptide of Example 2(54)) was 177 and the pepsin II digesting rate (µM/min · 1 µg Enz) (peptide of Example 2(57)) was 18.8. The ration of digesting rate (pepsin II/ pepsin I) (peptide of Example 2(57)) was 661, the pepsin II digesting rate (µM/min · 1 µg Enz) (peptide of Example 2(53)) was 62 and the ration of digesting rate (pepsin II/ pepsin I) (peptide of Example 2(53)) was 621. It also gave a pepsin II digesting rate (µM/min · 1 µg Enz) (peptide of Example 2(83)) of 70.7, a ration of digesting rate (pepsin II/ pepsin I) (peptide of Example 2(83)) of 29.9 and a pepsin II digesting rate (µM/min · 1 µg Enz) (peptide of Example 2(61)) of 36.8. For the same protein, the ration of digesting rate (pepsin II/ pepsin I) (peptide of Example 2(61)) was 219, the pepsin II digesting rate (µM/min · 1 µg Enz) [2] was 49.6 and the ration of digesting rate (pepsin II/ pepsin I) [2] was 158. It also gave a pepsin II digesting rate (µM/min · 1 µg Enz) (peptide of Example 2(18)) of 9.2, a ration of digesting rate (pepsin II/ pepsin I) (peptide of Example 2(18)) of 757 and a pepsin II digesting rate (µM/min · 1 µg Enz) (peptide of Example 2(34)) of 15.4. For the same protein, the ration of digesting rate (pepsin II/ pepsin I) (peptide of Example 2(34)) was 712, the pepsin II digesting rate (µM/min · 1 µg Enz) (peptide of Example 2(78)) was 54.4 and the ration of digesting rate (pepsin II/ pepsin I) (peptide of Example 2(78)) was 20.7. The pepsin II digesting rate (µM/min · 1 µg Enz) (peptide of Example 2(7)) was 3.5, the ration of digesting rate (pepsin II/ pepsin I) (peptide of Example 2(7)) was 104 and the pepsin II digesting rate (µM/min · 1 µg Enz) [3] was 55.4. The ration of digesting rate (pepsin II/ pepsin I) [3] was 198, the pepsin II digesting rate (µM/min · 1 µg Enz) (peptide of Example 2(16)) was 8.95 and the ration of digesting rate (pepsin II/ pepsin I) (peptide of Example 2(16)) was 1090. It also gave a pepsin II digesting rate (µM/min · 1 µg Enz) (peptide of Example 2(69)) of 73.1, a ration of digesting rate (pepsin II/ pepsin I) (peptide of Example 2(69)) of 74.2 and a pepsin II digesting rate (µM/min · 1 µg Enz) (peptide of Example 2(3)) of 4.23. It also gave a ration of digesting rate (pepsin II/ pepsin I) (peptide of Example 2(3)) of 2070, a pepsin II digesting rate (µM/min · 1 µg Enz) (peptide of Example 2(51)) of 54.4 and a ration of digesting rate (pepsin II/ pepsin I) (peptide of Example 2(51)) of 334. The pepsin II digesting rate (µM/min · 1 µg Enz) (peptide of Example 2(63)) was 29.8, the ration of digesting rate (pepsin II/ pepsin I) (peptide of Example 2(63)) was 169 and the pepsin II digesting rate (µM/min · 1 µg Enz) (peptide of Example 2(11)) was 4.1. It also gave a ration of digesting rate (pepsin II/ pepsin I) (peptide of Example 2(11)) of 175, a pepsin II digesting rate (µM/min · 1 µg Enz) (peptide of Example 2(22)) of 12.9 and a ration of digesting rate (pepsin II/ pepsin I) (peptide of Example 2(22)) of 223. For the same protein, the pepsin II digesting rate (µM/min · 1 µg Enz) (peptide of Example 2(24)) was 12.1, the ration of digesting rate (pepsin II/ pepsin I) (peptide of Example 2(24)) was 2080 and the pepsin II digesting rate (µM/min · 1 µg Enz) (peptide of Example 2(33)) was 25.4. It also gave a ration of digesting rate (pepsin II/ pepsin I) (peptide of Example 2(33)) of 402, a pepsin II digesting rate (µM/min · 1 µg Enz) (peptide of Example 2(39)) of 45.8 and a ration of digesting rate (pepsin II/ pepsin I) (peptide of Example 2(39)) of 201. It also gave a pepsin II digesting rate (µM/min · 1 µg Enz) (peptide of Example 2(25)) of 5.56, a ration of digesting rate (pepsin II/ pepsin I) (peptide of Example 2(25)) of 890 and a pepsin II digesting rate (µM/min · 1 µg Enz) (peptide of Example 2(80)) of 15.8. The ration of digesting rate (pepsin II/ pepsin I) (peptide of Example 2(80)) was 105, the pepsin II digesting rate (µM/min · 1 µg Enz) (peptide of Example 2(56)) was 10.9 and the ration of digesting rate (pepsin II/ pepsin I) (peptide of Example 2(56)) was 563. The pepsin II digesting rate (µM/min · 1 µg Enz) (peptide of Example 2(45)) was 40.5, the ration of digesting rate (pepsin II/ pepsin I) (peptide of Example 2(45)) was 161 and the pepsin II digesting rate (µM/min · 1 µg Enz) (peptide of Example 2(14)) was 3.85. It also gave a ration of digesting rate (pepsin II/ pepsin I) (peptide of Example 2(14)) of 410.
